Consider 1 molecule from article doi:10.1101/2024.12.06.626481 (bioRxiv, 2024).

This experiment addresses murine IL-21 (mIL-21) (murine, UniProt Q9ES17 18-146). The experiment in a line: BLI. (Biolayer interferometry detects binding as a change in optical thickness at a sensor tip.)

B1: biotinylated murine IL-21 receptor (mIL-21R) (receptor)
chain: not shown
modifications: biotinylated (site not stated)
In the case of B1, the binding result was “binds”.
